This is an account of results in patent US20260263521A1, “ANTI-CD200R1 ANTIBODY AND USE THEREOF” (AIMED BIO INC., priority 2023, published 2026).

Experiment [1] has as its target human CD200R1 expressed on cells (Jurkat-CD200R1, U937-CD200R1, HH cells) (human) (UniProt Q8TD46). Kind of experiment: flow cytometry, HH cells; drawn table. Background: A flow cytometer gives signals particle by particle.
The target is the same in experiment [2]. As to the kind of experiment: flow cytometry, HH cells; drawn table, row EC50.
Experiment [3] shares this target. Kind of experiment: cell-based or functional assay.

Chain of human CD200R1 expressed on cells (Jurkat-CD200R1, U937-CD200R1, HH cells) (human) (Q8TD46 25-348): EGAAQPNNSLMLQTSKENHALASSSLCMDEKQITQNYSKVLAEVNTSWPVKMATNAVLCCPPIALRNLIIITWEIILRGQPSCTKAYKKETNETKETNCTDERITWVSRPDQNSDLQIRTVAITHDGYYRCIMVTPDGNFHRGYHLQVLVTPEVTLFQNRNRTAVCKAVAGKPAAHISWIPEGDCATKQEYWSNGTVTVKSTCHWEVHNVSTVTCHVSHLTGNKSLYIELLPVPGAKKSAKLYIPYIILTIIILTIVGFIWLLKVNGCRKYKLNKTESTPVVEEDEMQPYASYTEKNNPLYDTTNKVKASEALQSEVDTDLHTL

By EC50 is commonly meant the concentration needed to bring the measured effect to its halfway point. In experiment [1], IgG1 (antibody) returned a Geo mean (%) at 0.05 nM of 0.8%, a Geo mean (%) at 0.19 nM of 0.8%, a Geo mean (%) at 0.78 nM of 0.8% and a Geo mean (%) at 3.125 nM of 0.8%. Further, in experiment [1], the Geo mean (%) at 12.5 nM was found to be 0.8%, the Geo mean (%) at 50 nM was 1%, the Geo mean (%) at 200 nM came out at 1.9% and the Geo mean (%) at 800 nM was determined as 3.5%. Also, the EC50 in experiment [2] was found to be 815 nM.

In experiment [3], “hIgG4 kappa isotype control (Crownvivo, #C0004) (antibody)” yielded an IL-6 (pg/ml) at log [Ab] (M) -7, LPS-treated U937-CD200R1 cells of 3510 pg/ml and a TNF-α (pg/ml) at log [Ab] (M) -7, LPS-treated U937-CD200R1 cells of 5090 pg/ml.

In experiment [3], “LY3454738 (US 2020/0087395, I-4P, Eli Lilly) (antibody)” returned an EC50 (nM), degree of signal transduction by the Dok2 protein of more than 10000 nM; an IC50 (nM) of IL-6 inhibition, LPS-treated U937-CD200R1 cells of 1.72 nM; an IC50 (nM) of TNF-α inhibition, LPS-treated U937-CD200R1 cells of 6.03 nM; an IL-6 (pg/ml) at log [Ab] (M) -7, LPS-treated U937-CD200R1 cells of 523 pg/ml. In experiment [3], the IL-6 (pg/ml) at log [Ab] (M) -8, LPS-treated U937-CD200R1 cells was determined as 1330 pg/ml; the IL-6 (pg/ml) at log [Ab] (M) -9, LPS-treated U937-CD200R1 cells stood at 2670 pg/ml; the IL-6 (pg/ml) at log [Ab] (M) -10, LPS-treated U937-CD200R1 cells was found to be 3380 pg/ml; the IL-6 (pg/ml) at log [Ab] (M) -11, LPS-treated U937-CD200R1 cells was 3550 pg/ml. In experiment [3], this substance returned an IL-6 (pg/ml) at log [Ab] (M) -12, LPS-treated U937-CD200R1 cells of 4530 pg/ml; an RLU (a.u.), phosphorylated Dok2 reporter, antibody dose 0.05 nM of 9260 a.u; an RLU (a.u.), phosphorylated Dok2 reporter, antibody dose 0.10 nM of 8400 a.u; an RLU (a.u.), phosphorylated Dok2 reporter, antibody dose 0.20 nM of 8000 a.u. In experiment [3], this substance came in with an RLU (a.u.), phosphorylated Dok2 reporter, antibody dose 0.39 nM of 8960 a.u; an RLU (a.u.), phosphorylated Dok2 reporter, antibody dose 0.78 nM of 8900 a.u; an RLU (a.u.), phosphorylated Dok2 reporter, antibody dose 1.56 nM of 9100 a.u; an RLU (a.u.), phosphorylated Dok2 reporter, antibody dose 3.13 nM of 9470 a.u. In experiment [3], the RLU (a.u.), phosphorylated Dok2 reporter, antibody dose 6.25 nM came out at 8930 a.u; the RLU (a.u.), phosphorylated Dok2 reporter, antibody dose 12.5 nM worked out at 13000 a.u; the RLU (a.u.), phosphorylated Dok2 reporter, antibody dose 25 nM came to 22700 a.u; the RLU (a.u.), phosphorylated Dok2 reporter, antibody dose 50 nM turned out to be 25600 a.u. In experiment [3], the TNF-α (pg/ml) at log [Ab] (M) -7, LPS-treated U937-CD200R1 cells was 472 pg/ml; the TNF-α (pg/ml) at log [Ab] (M) -8, LPS-treated U937-CD200R1 cells was found to be 1040 pg/ml; the TNF-α (pg/ml) at log [Ab] (M) -9, LPS-treated U937-CD200R1 cells was found to be 1480 pg/ml; the TNF-α (pg/ml) at log [Ab] (M) -10, LPS-treated U937-CD200R1 cells came to 3760 pg/ml. In addition, in experiment [3], the TNF-α (pg/ml) at log [Ab] (M) -11, LPS-treated U937-CD200R1 cells was found to be 4950 pg/ml and the TNF-α (pg/ml) at log [Ab] (M) -12, LPS-treated U937-CD200R1 cells was 5490 pg/ml.
